{"source": "paper PMC3994049", "about": "“Molecular Characterization and Expression of a Novel Alcohol Oxidase from Aspergillus terreus MTCC6324” (PLoS ONE, 2014)", "molecules": {"B1": {"name": "rAOx (recombinant alcohol oxidase, A. terreus MTCC6324) (Aspergillus terreus) (protein)", "chain": "MTIPDEVDIIICGGGSSGCVPAGRLANLDPSLSVLLIEAGEDNLNNPWVYRPGIYPRNMKLDSKTASFYYSRPSEHLDGRRAIVPCANILGGGSSINFMMYTRASASDYDDFQAEGWKTKDLVPLMRKHETYQRACNNRELHGFDGPIKVSFGNYTYPIMRDFLRAAESQDIPITDDLQDLKTGHGAEHWLKWINRDTGRRSDAAHAYVHSTRAKQSNLHLKCNTKVDKVIIENGRAVGVATVPSKPLDGHDPPRKIFRARKQIIISSGTLSSPLILQRSGIGDPEKLRAAGIRPLMNLPGVGRNFQDHYLTFSVFRAKPDVESFDDFVRGDPEVQKKVFDEWNLKGTGPLATNGIDAGVKIRPTEKELEEMKKWPTPEFVDGWETYFKNKPDKPVMHYSVIAGWFGDHMLMPPGKFFTMFHFLEYPFSRGFTHVKSADPYGNPDFDAGFMNDKRDMAAMVWGYIKSRETARRMSSYAGEVTAMHPHFAYDSPARAFDLDLETTKAYAGPNHITAGIQHGSWSHPLEKGNPSLETHLNSHRQDTRNELQYSNEDIKHIEKWVQRHVETTWHSLGTCSMAPREGNSLTKHGGVVDERLNVHGVEGLKVCDLSICPDNVGCNTFSTALLIGEKCAMLVAEDLGYSGAALEMKVPTYHAPGEFTGLARL", "notes": "full-length ORF 2001 bp, 666 residues; pET28a(+), N- and C-terminal His6 kept; ~74-76 kDa; highly aggregated (~1000 nm)"}}, "key": {"[1]": {"test_system": "COc1cccc(CO)c1", "assay": "purified protein", "details": "apparent, FAD-reconstituted enzyme, 0.1 M sodium phosphate pH 6.0"}, "[2]": {"target": "T1, rAOx (recombinant alcohol oxidase, A. terreus MTCC6324) (Aspergillus terreus, UniProt I7FDJ2)", "T1 construct": "gene AOx; full-length ORF 2001 bp, 666 residues; pET28a(+), N- and C-terminal His6 kept; ~74-76 kDa; highly aggregated (~1000 nm)", "T1 sequence (I7FDJ2 1-666)": "B1 chain", "assay": "FAD fluorescence quenching (ex […] nm, em […] nm) after reconstitution of apoenzyme", "assay_type": "binding", "details": "refolding of apo-rAOx with 0.08 mM FAD, pH 9.0, 16 °C, ~80 h"}, "[3]": {"substrate": "COc1ccc(CO)cc1OC", "assay": "purified protein", "assay_type": "biochemical, Aspergillus terreus", "details": "apparent, FAD-reconstituted enzyme, 0.1 M sodium phosphate pH 6.0"}, "[4]": {"substrate": "OCc1ccccc1", "assay": "purified protein", "assay_type": "biochemical, Aspergillus terreus", "details": "apparent, FAD-reconstituted enzyme, 0.1 M sodium phosphate pH 6.0"}}, "data": [{"molecule": "rAOx (recombinant alcohol oxidase, A. terreus MTCC6324) (Aspergillus terreus)", "values": [{"measurement": "Km", "setting": "[1]", "result": 2.88, "unit": "mM"}, {"measurement": "kcat", "setting": "[1]", "result": 106, "unit": "s⁻¹"}, {"measurement": "kcat/Km", "setting": "[1]", "result": 36700, "unit": "M⁻¹ s⁻¹"}]}, {"molecule": "Cc1cc2nc3c(=O)[nH]c(=O)nc-3n(C[C@H](O)[C@H](O)[C@H](O)COP(=O)(O)OP(=O)(O)OC[C@H]3O[C@@H](n4cnc5c(N)ncnc54)[C@H](O)[C@@H]3O)c2cc1C", "note": "[FAD]", "values": [{"measurement": "FAD fluorescence quenching (ex 443 nm, em 527 nm) after reconstitution of apoenz", "setting": "[2]", "result": "lower fluorescence intensity of the holoenzyme relative to that of free FAD inferred efficient incorporation"}]}, {"molecule": "B1", "values": [{"measurement": "Km", "setting": "[3]", "result": 4.91, "unit": "mM"}, {"measurement": "kcat", "setting": "[3]", "result": 115, "unit": "s⁻¹"}, {"measurement": "kcat/Km", "setting": "[3]", "result": 23500, "unit": "M⁻¹ s⁻¹"}, {"measurement": "Km", "setting": "[4]", "result": 10.80, "unit": "mM"}, {"measurement": "kcat", "setting": "[4]", "result": 2.16, "unit": "s⁻¹"}, {"measurement": "kcat/Km", "setting": "[4]", "result": 200, "unit": "M⁻¹ s⁻¹"}]}]}
